Assay results reported in the supplement of paper PMC9233669.
This sample holds only a part of the variants without activity.

How the values were obtained:
biotinyl-Leu-oxazolone = experiment: self-aminoacylation, catalytic enhancement (BLO) (fold over background); higher = more active; k-Seq, kA / k0A0; sequences stand for … in GGGAAUGGAUCCACAUCUACGAAUUC…UUCACUGCAGACUUGACGAAGCUG
Method in brief: (§1)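 Working in 50 μL HEPES/NaCl/KCl/MgCl2/CaCl2 buffer with 5% acetonitrile at pH 6.9–7.0, mutagenized RNA pools (0.43 μM; 21-nt variable region) were reacted with 2–1250 μM of each biotinyl-aminoacyl-oxazolone for 90 minutes at room temperature. Streptavidin capture followed, with quantification by triplicate qPCR and Illumina sequencing. Catalytic enhancement is reported as median kA over the uncatalyzed rate, the low-activity peak of a bimodal Gaussian fit to the data.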

biotinyl-Met-oxazolone = experiment: self-aminoacylation, catalytic enhancement (BMO) (fold over background); higher = more active; k-Seq, kA / k0A0; sequences stand for … in GGGAAUGGAUCCACAUCUACGAAUUC…UUCACUGCAGACUUGACGAAGCUG
Method in brief: as §1

biotinyl-Phe-oxazolone = experiment: self-aminoacylation, catalytic enhancement (BFO) (fold over background); higher = more active; k-Seq, kA / k0A0; sequences stand for … in GGGAAUGGAUCCACAUCUACGAAUUC…UUCACUGCAGACUUGACGAAGCUG
Method in brief: as §1

biotinyl-Val-oxazolone = experiment: self-aminoacylation, catalytic enhancement (BVO) (fold over background); higher = more active; k-Seq, kA / k0A0; sequences stand for … in GGGAAUGGAUCCACAUCUACGAAUUC…UUCACUGCAGACUUGACGAAGCUG
Method in brief: as §1

biotinyl-Trp-oxazolone = experiment: self-aminoacylation, catalytic enhancement (BWO) (fold over background); higher = more active; k-Seq, kA / k0A0; sequences stand for … in GGGAAUGGAUCCACAUCUACGAAUUC…UUCACUGCAGACUUGACGAAGCUG
Method in brief: as §1

biotinyl-Ile-oxazolone = experiment: self-aminoacylation, catalytic enhancement (BIO) (fold over background); higher = more active; k-Seq, kA / k0A0; sequences stand for … in GGGAAUGGAUCCACAUCUACGAAUUC…UUCACUGCAGACUUGACGAAGCUG
Method in brief: as §1

Sequence | self-aminoacylation (biotinyl-Leu-oxazolone) | self-aminoacylation (biotinyl-Met-oxazolone) | self-aminoacylation (biotinyl-Phe-oxazolone) | self-aminoacylation (biotinyl-Val-oxazolone) | self-aminoacylation (biotinyl-Trp-oxazolone) | self-aminoacylation (biotinyl-Ile-oxazolone)
CUACUUCAAACCAUCGGUCAG [Fam1A.1 aminoacylation ribozyme variant] | 0.488 | 0.609 | 0.853 | 0.771 | 0.762 | 0.67
CUACUUCAAACCAUCGGUGUG [Fam1A.1 aminoacylation ribozyme variant] | 1.52 | 1.11 | 1.24 | 1.1 | 0.938 | 1.08
CUACUUCAAACGAGCGGUCUG [Fam1A.1 aminoacylation ribozyme variant] | 0.689 | 0.943 | 0.761 | 1.02 | 0.477 | 0.8
CUACUUCAAACGAUCGGCCUG [Fam1A.1 aminoacylation ribozyme variant] | 1.96 | 1.33 | 1.59 | 1.66 | 2.08 | 1.55
CUACUUCAAACUAUCGAUCUG [Fam1A.1 aminoacylation ribozyme variant] | 0.596 | 0.57 | 0.945 | 0.728 | 0.369 | 0.736
CUACUUCAAACUAUCGCUCUG [Fam1A.1 aminoacylation ribozyme variant] | 0.678 | 0.609 | 0.781 | 0.786 | 0.664 | 0.732
CUACUUCAAACUAUCGGUUUG [Fam1A.1 aminoacylation ribozyme variant] | 0.829 | 0.748 | 0.88 | 0.961 | 0.697 | 0.944
CUACUUCAAACUAUGGGUCUG [Fam1A.1 aminoacylation ribozyme variant] | 0.922 | 0.789 | 0.588 | 0.813 | 0.592 | 0.917
CUACUUCAAAGAAUAGGUCUG [Fam1A.1 aminoacylation ribozyme variant] | 0.699 | 0.784 | 0.944 | 0.746 | 0.59 | 0.816
CUACUUCAAAGAAUCGGUCGG [Fam1A.1 aminoacylation ribozyme variant] | 1.05 | 0.844 | 1.37 | 0.795 | 1.12 | 0.763
CUACUUCAAAGAAUCGGUGUG [Fam1A.1 aminoacylation ribozyme variant] | 1.28 | 0.905 | 1.04 | 0.803 | 1.02 | 0.994
CUACUUCAAAUAAUCAGUCUG [Fam1A.1 aminoacylation ribozyme variant] | 0.891 | 0.717 | 8.19 | 0.935 | 3.71 | 0.956
CUACUUCAAAUAAUCGGCCUG [Fam1A.1 aminoacylation ribozyme variant] | 1.36 | 0.902 | 14.5 | 0.985 | 12 | 1.11
CUACUUCAAAUCAUCGGUCUG [Fam1A.1 aminoacylation ribozyme variant] | 0.917 | 0.83 | 0.771 | 0.855 | 0.65 | 0.876
CUACUUCAACCAAGCGGUCUG [Fam1A.1 aminoacylation ribozyme variant] | 0.942 | 0.907 | 0.739 | 0.954 | 0.8 | 1.02
CUACUUCAACCAAUCGGUCCG [Fam1A.1 aminoacylation ribozyme variant] | 1.22 | 1.26 | 6.1 | 0.799 | 5.57 | 0.867
CUACUUCAACCUAUCGGUCUG [Fam1A.1 aminoacylation ribozyme variant] | 0.79 | 1.03 | 1.32 | 0.884 | 1.02 | 1.01
CUACUUCAAGCGAUCGGUCUG [Fam1A.1 aminoacylation ribozyme variant] | 0.799 | 0.769 | 0.917 | 0.781 | 0.654 | 0.77
CUACUUCAAGGAAUCGGUCUG [Fam1A.1 aminoacylation ribozyme variant] | 1.97 | 1.64 | 8.77 | 1.42 | 3.64 | 1.54
CUACUUCAAUCAAUCAGUCUG [Fam1A.1 aminoacylation ribozyme variant] | 0.946 | 0.809 | 16.5 | 0.86 | 6.4 | 0.942
CUACUUCAAUCAAUCGGUCUU [Fam1A.1 aminoacylation ribozyme variant] | 1.35 | 1.07 | 19.8 | 1.11 | 10.6 | 1.23
CUACUUCAAUCAAUCGGUGUG [Fam1A.1 aminoacylation ribozyme variant] | 1.83 | 1.19 | 7.44 | 1.27 | 4.96 | 1.18
CUACUUCAAUCAAUCUGUCUG [Fam1A.1 aminoacylation ribozyme variant] | 0.57 | 0.539 | 1.25 | 0.597 | 0.721 | 0.599
CUACUUCAAUCAAUGGGUCUG [Fam1A.1 aminoacylation ribozyme variant] | 0.912 | 0.801 | 0.579 | 0.809 | 0.627 | 0.889
CUACUUCAAUCGAUCGGUCUG [Fam1A.1 aminoacylation ribozyme variant] | 0.634 | 0.707 | 0.776 | 0.754 | 0.977 | 0.687
CUACUUCACACAAGCGGUCUG [Fam1A.1 aminoacylation ribozyme variant] | 0.817 | 0.816 | 0.75 | 0.993 | 1.01 | 1.03

Sequence | self-aminoacylation (biotinyl-Leu-oxazolone) | self-aminoacylation (biotinyl-Met-oxazolone) | self-aminoacylation (biotinyl-Phe-oxazolone) | self-aminoacylation (biotinyl-Val-oxazolone) | self-aminoacylation (biotinyl-Trp-oxazolone) | self-aminoacylation (biotinyl-Ile-oxazolone)
CUACUUCACACAAUCGGUCUU [Fam1A.1 aminoacylation ribozyme variant] | 0.856 | 0.639 | 0.701 | 0.85 | 0.713 | 0.963
CUACUUCACACAAUCUGUCUG [Fam1A.1 aminoacylation ribozyme variant] | 0.573 | 0.558 | 0.903 | 0.699 | 0.513 | 0.655
CUACUUCACACGAUCGGUCUG [Fam1A.1 aminoacylation ribozyme variant] | 0.853 | 0.97 | 0.678 | 0.777 | 0.654 | 0.913
CUACUUCAGACAAACGGUCUG [Fam1A.1 aminoacylation ribozyme variant] | 0.908 | 0.962 | 0.868 | 0.863 | 0.573 | 0.89
CUACUUCAGAUAAUCGGUCUG [Fam1A.1 aminoacylation ribozyme variant] | 0.675 | 0.648 | 0.629 | 0.686 | 0.432 | 0.643
CUACUUCAGGCAAUCGGUCUG [Fam1A.1 aminoacylation ribozyme variant] | 1.42 | 0.853 | 1.02 | 1.24 | 1.27 | 0.94
CUACUUCAGUCAAUCGGUCUG [Fam1A.1 aminoacylation ribozyme variant] | 0.667 | 0.848 | 0.793 | 0.807 | 0.463 | 0.565
CUACUUCAUACAAUCGGGCUG [Fam1A.1 aminoacylation ribozyme variant] | 0.877 | 0.744 | 0.688 | 0.994 | 0.764 | 1.11
CUACUUCAUACAAUCGGUCAG [Fam1A.1 aminoacylation ribozyme variant] | 0.662 | 0.644 | 0.985 | 0.699 | 0.721 | 0.738
CUACUUCAUACAAUCGGUCCG [Fam1A.1 aminoacylation ribozyme variant] | 0.669 | 0.76 | 0.5 | 0.653 | 0.49 | 0.675
CUACUUCAUACAAUCGGUGUG [Fam1A.1 aminoacylation ribozyme variant] | 1.14 | 0.959 | 0.976 | 0.956 | 0.545 | 0.839
CUACUUCAUACAAUCGGUUUG [Fam1A.1 aminoacylation ribozyme variant] | 0.602 | 0.538 | 0.619 | 0.541 | 0.425 | 0.64
CUACUUCAUACAAUGGGUCUG [Fam1A.1 aminoacylation ribozyme variant] | 0.803 | 0.755 | 0.65 | 0.757 | 0.764 | 0.805
CUACUUCCAACAAUAGGUCUG [Fam1A.1 aminoacylation ribozyme variant] | 0.578 | 0.562 | 0.659 | 0.688 | 0.417 | 0.744
CUACUUCCAACAAUCGGUCAG [Fam1A.1 aminoacylation ribozyme variant] | 0.663 | 0.62 | 1.04 | 0.774 | 0.518 | 0.795
CUACUUCGAACAAACGGUCUG [Fam1A.1 aminoacylation ribozyme variant] | 0.535 | 0.664 | 0.51 | 0.805 | 0.619 | 0.709
CUACUUCGAACAAGCGGUCUG [Fam1A.1 aminoacylation ribozyme variant] | 0.9 | 0.624 | 0.721 | 0.64 | 0.528 | 0.727
CUACUUCGAACAAUCGGGCUG [Fam1A.1 aminoacylation ribozyme variant] | 1.24 | 1.02 | 0.645 | 1.54 | 1.57 | 1.3
CUACUUCGAACGAUCGGUCUG [Fam1A.1 aminoacylation ribozyme variant] | 1.06 | 0.779 | 0.279 | 1.04 | 0.707 | 0.846
CUACUUCGUACAAUCGGUCUG [Fam1A.1 aminoacylation ribozyme variant] | 0.596 | 0.519 | 0.251 | 0.685 | 0.327 | 0.571
CUACUUCUAACAAGCGGUCUG [Fam1A.1 aminoacylation ribozyme variant] | 0.658 | 0.708 | 0.708 | 0.694 | 0.64 | 0.801
CUACUUCUAACAAUCCGUCUG [Fam1A.1 aminoacylation ribozyme variant] | 0.656 | 0.679 | 0.709 | 0.792 | 0.586 | 0.905
CUACUUCUAACAAUCGGACUG [Fam1A.1 aminoacylation ribozyme variant] | 0.495 | 0.398 | 0.602 | 0.572 | 0.419 | 0.566
CUACUUCUAACAAUCGGUCUG [Fam1A.1 aminoacylation ribozyme variant] | 0.585 | 0.608 | 0.785 | 0.693 | 0.532 | 0.658
CUACUUCUAACAAUCGGUGUG [Fam1A.1 aminoacylation ribozyme variant] | 0.907 | 0.91 | 0.728 | 0.687 | 0.569 | 0.844
